Numbered stars: 1 amine (or outer) side, 2 acyl side, 3 side chain; on linkers, the order of the positions; unused ones are H or OH. Bridge positions count the residues as written; N and C are the ends. Square brackets hold non-standard residues; d marks the D form. Ends that are not written are not given here. Peptide text beside a SMILES is read from it. * marks the point of attachment. PR3 = (R)-N-(acetyl)-2-(2'-propenyl)proline, C=CC[C@@]1(C(=O)*)CCCN1C(C)=O; S3 = α-methyl,α-allylglycine, C=CC[C@](C)(N[*:1])C(=O)[*:2]; X1 = O=C([C@]1(CCCC=[*:3])CCCN1[*:1])[*:2]; X2 = O=C([C@]1(CC=[*:3])CCCN1[*:1])[*:2]; X3 = C[C@@](CC=[*:3])(N[*:1])C(=O)[*:2]; S8 = C=CCCCCCC[C@](C)(N)C(=O)O; R5 = C=CCCC[C@@](C)(N)C(=O)O; S5 = C=CCCC[C@](C)(N)C(=O)O
Columns and labels:
circular dichroism = conditions: 50 mM sodium phosphate (stated for FIG. 5; assumed for the rest), pH 8.0
[1] = CD measurements of peptide conformation and % helicity; type: physicochemical; conditions: 20° C.
From the text: The conformation of peptide 1 and 2 was investigated by CD measurements (FIG. 4).
(Peptide 1 of FIG. 2 corresponds to Peptide “1)” of FIG. 17, while Peptide 2 of FIG. 2 corresponds to Peptide “4)” of FIG. 17).

[2] = Variable temperature CD measurement of α-helix stability; type: physicochemical; conditions: 20° C. to 90° C.; 50 mM sodium phosphate buffer (pH 8.0), alone and with 100 mM NaCl, 1 M NaCl, and 10% TFE
From the text: These observations indicate that the proline stapled peptides adopt an α-helix conformation with extraordinary stability.

Row | Compound | helicity (circular dichroism; ns °C) [%] | further results
1 | CC(=O)N1CCC[C@]12CC=CCCCC1(CCCC=CCCCCCC[C@@](C)(C(=O)N[C@@H](C)C(=O)N[C@@H](C)C(=O)N[C@@H](Cc3c[nH]c4ccccc34)C(N)=O)NC(=O)[C@H]([C@@H](C)O)NC(=O)[C@H](CC(N)=O)NC(=O)[C@H](CCCNC(=N)N)NC(=O)[C@H](C)NC(=O)[C@H](CCCNC(=N)N)NC(=O)[C@H](CCCCN)NC1=O)NC(=O)[C@H](C)NC(=O)[C@H](C)NC2=O (stereo partly drawn) | 81 | 
2 | CC(=O)N1CCC[C@]12CC=CCCCC1(CCCC=CCCC[C@](C)(C(=O)N[C@@H](CC(N)=O)C(=O)N[C@H](C(=O)N[C@@H](CCC(=O)O)C(=O)N[C@@H](C)C(=O)N[C@@H](C)C(=O)N[C@@H](Cc3c[nH]c4ccccc34)C(N)=O)[C@@H](C)O)NC(=O)[C@H](C)NC(=O)[C@H](CCCNC(=N)N)NC(=O)[C@H](CCCCN)NC1=O)NC(=O)[C@H](C)NC(=O)[C@H](C)NC2=O (stereo partly drawn) | 47 | 
3 | CC(=O)N1CCC[C@]12CC=CC[C@@](C)(C(=O)N[C@@H](CCCCN)C(=O)N[C@@H](CCCNC(=N)N)C(=O)N[C@@H](C)C(=O)N[C@@H](CCCNC(=N)N)C(=O)N[C@@H](CC(N)=O)C(=O)N[C@H](C(=O)N[C@@H](CCC(=O)O)C(=O)N[C@]1(C)CC=CCCNC(=O)[C@H](Cc3c[nH]c4ccccc34)NC(=O)[C@H](C)NC1=O)[C@@H](C)O)NC(=O)[C@H](C)NC(=O)[C@H](C)NC2=O | 64 | 
4 | CC(=O)N1CCC[C@]12CC=CC[C@@](C)(C(=O)N[C@@H](CCCCN)C(=O)N[C@@H](CCCNC(=N)N)C(=O)N[C@@H](C)C(=O)N[C@@H](CCCNC(=N)N)C(=O)N[C@@H](CC(N)=O)C(=O)N[C@H](C(=O)N[C@@H](CCC(=O)O)C(=O)N[C@]1(C)CC=CCNC(=O)[C@H](Cc3c[nH]c4ccccc34)NC(=O)[C@H](C)NC1=O)[C@@H](C)O)NC(=O)[C@H](C)NC(=O)[C@H](C)NC2=O | 64 | 
5 | CC(=O)N1CCC[C@]12CC=CC[C@@](C)(C(=O)N[C@@H](CCCCN)C(=O)N[C@@H](CCCNC(=N)N)C(=O)N[C@@H](C)C(=O)N[C@@H](CCCNC(=N)N)C(=O)N[C@@H](CC(N)=O)C(=O)N[C@H](C(=O)N[C@@H](CCC(=O)O)C(=O)N[C@]1(C)CCC=CCCNC(=O)[C@H](Cc3c[nH]c4ccccc34)NC(=O)[C@H](C)NC1=O)[C@@H](C)O)NC(=O)[C@H](C)NC(=O)[C@H](C)NC2=O | 80 | 
6 | CC(=O)N1CCC[C@]12CC=CC[C@@](C)(C(=O)N[C@@H](CCCCN)C(=O)N[C@@H](CCCNC(=N)N)C(=O)N[C@@H](C)C(=O)N[C@@H](CCCNC(=N)N)C(=O)N[C@@H](CC(N)=O)C(=O)N[C@H](C(=O)N[C@@H](CCC(=O)O)C(=O)N[C@]1(C)CCC=CCNC(=O)[C@H](Cc3c[nH]c4ccccc34)NC(=O)[C@H](C)NC1=O)[C@@H](C)O)NC(=O)[C@H](C)NC(=O)[C@H](C)NC2=O | 69 | 
7 | CC(=O)N1CCC[C@]12CC=CC[C@@](C)(C(=O)N[C@@H](CCCCN)C(=O)N[C@@H](CCCNC(=N)N)C(=O)N[C@@H](C)C(=O)N[C@@H](CCCNC(=N)N)C(=O)N[C@@H](CC(N)=O)C(=O)N[C@H](C(=O)N[C@@H](CCC(=O)O)C(=O)N[C@]1(C)CCCC=CCNC(=O)[C@H](Cc3c[nH]c4ccccc34)NC(=O)[C@H](C)NC1=O)[C@@H](C)O)NC(=O)[C@H](C)NC(=O)[C@H](C)NC2=O | 73 | 
8 | CC(=O)N[C@]1(C)CCCC=CCCCCCC[C@@](C)(C(=O)N[C@@H](CC(N)=O)C(=O)N[C@H](C(=O)N[C@@H](CCC(=O)O)C(=O)N[C@@H](C)C(=O)N[C@@H](C)C(=O)N[C@@H](Cc2c[nH]c3ccccc23)C(N)=O)[C@@H](C)O)NC(=O)[C@H](C)NC(=O)[C@H](CCCNC(=N)N)NC(=O)[C@H](CCCCN)NC(=O)[C@H](CC(C)C)NC(=O)[C@H](C)NC(=O)[C@H](C)NC1=O (Ac-[R5]AALKRA[S8]NTEAAW-NH2; staple 1-8) | 48 | 
9 | CC(=O)N1CCC[C@]12CCCC=CCCCCCC[C@@](C)(C(=O)N[C@@H](CC(N)=O)C(=O)N[C@H](C(=O)N[C@@H](CCC(=O)O)C(=O)N[C@@H](C)C(=O)N[C@@H](C)C(=O)N[C@@H](Cc1c[nH]c3ccccc13)C(N)=O)[C@@H](C)O)NC(=O)[C@H](C)NC(=O)[C@H](CCCNC(=N)N)NC(=O)[C@H](CCCCN)NC(=O)[C@H](CC(C)C)NC(=O)[C@H](C)NC(=O)[C@H](C)NC2=O (Ac-[X1]AALKRA[S8]NTEAAW-NH2; staple 1-8) | 61 | 
10 | CC(=O)N1CCC[C@]12C/C=C\CCC[C@@](C)(C(=O)N[C@@H](CCCCN)C(=O)N[C@@H](CCCNC(=N)N)C(=O)N[C@@H](C)C(=O)N[C@@H](CCCNC(=N)N)C(=O)N[C@@H](CC(N)=O)C(=O)N[C@H](C(=O)N[C@@H](CCC(=O)O)C(=O)N[C@@H](C)C(=O)N[C@@H](C)C(=O)N[C@@H](Cc1c[nH]c3ccccc13)C(N)=O)[C@@H](C)O)NC(=O)[C@H](C)NC(=O)[C@H](C)NC2=O (Ac-[X2]AA[S5]KRARNTEAAW-NH2; staple (Z) 1-4) |  | helicity (circular dichroism; 20 °C): 44%
11 | CC(=O)N1CCC[C@]12CC=CC[C@@](C)(C(=O)N[C@@H](C)C(=O)N[C@@H](C)C(=O)N[C@@H](C)C(=O)N[C@@H](Cc1c[nH]c3ccccc13)C(N)=O)NC(=O)[C@H](C)NC(=O)[C@H](C)NC2=O (Ac-[X2]AA[X3]AAAW-NH2; staple 1-4) | 70 | 
12 | CC(=O)N1CCC[C@]12C/C=C\C[C@@](C)(C(=O)N[C@@H](CCCCN)C(=O)N[C@@H](CCCNC(=N)N)C(=O)N[C@@H](C)C(=O)N[C@@H](CCCNC(=N)N)C(=O)N[C@@H](CC(N)=O)C(=O)N[C@H](C(=O)N[C@@H](CCC(=O)O)C(=O)N[C@@H](C)C(=O)N[C@@H](C)C(=O)N[C@@H](Cc1c[nH]c3ccccc13)C(N)=O)[C@@H](C)O)NC(=O)[C@H](C)NC(=O)[C@H](C)NC2=O (Ac-[X2]AA[X3]KRARNTEAAW-NH2; staple (Z) 1-4) |  | helicity (circular dichroism; 20 °C): 66%
13 | peptide 2: Pro-locked peptide with partial basic region of GCN4, crosslink between PR3 and S3; Peptide "4)" of FIG. 17 (SEQ ID NO:2) ([PR3]AA[S3]KRARNTEAAW; staple 1-4; also: olefin Z-isomer) |  | % helicity [1]: 67%; conformation by CD [1]: (X-helix; α-helix conformation on heating [2]: completely maintained
